Assay results from article PMC6002859.

Molecular target: Plk1 (UniProt P53350)
Assay: Myc-PP6R2 IP, Plk1 Western blot
Conditions: reference: wild type; sites S771

Substance: PP6R2 (SAPS2) (from UniProt O75170) S771A (PBD2 mutant)
- binding against the reference: lost
